From a protein production outcome set (Wang et al. 2014)

test: label from the status in PepcDB records

Sequence | protein production
MSLGNIFVTGRIAFSLKYEQQTQSLVVHVKECHQLAYADEAKKRSNPYVKTYLLPDKSRQGKRKTSIKRDTVNPLYDETLRYEIPESLLAQRTLQFSVWHHGRFGRNTFLGEAEIQMDSWKLDKKLDHCLPLHGKISAESEGHHHHHH | not failed
MSLGNNSAKGTATGNATALWRNAQLATLNPAMDGIGAVENAVIAVRNGRIAFAGPESDLPDDLSTADETTDCGGRWITPALIDCHTHLVFGGNRAMEFEMRLNGATYEEIAKAGGGIVSSVRDTRALSDEVLVAQALPRLDTLLSEGVSTIEIKSGYGLDIETELKMLRVARRLETLRPVRIVTSYLAAHATPADYKGRNADYITDVVLPGLEKAHAEGLADAVDGFCEGIAFSVKEIDRVFAAAQQRGLPVKLHAEQLSNLGGAELAASYNALSADHLEYLDETGAKALAKAGTVAVLLPGAFYALREKQLPPVQALRDAGAEIALATDCNPGTSPLTSLLLTMNMGATLFRMTVEECLTATTRNAAKALGLLAETGTLEAGKSADFAIWDIERPAELVYRIGFNPLHARIFKGQKVSPEGHHHHHH | not failed
MSLGQQQVTLFWSGAITGPTSDAGAPYGAAVEDYCKWANERKLVPGVVFNCVVRDDQYNNANTQRFFEEAVDRFKIPVFLSYATGANLQLKPLIQELRIPTIPASMHIELIDPPNNDYIFLPTTSYSEQVVALLEYIAREKKGAKVALVVHPSPFGRAPVEDARKAARELGLQIVDVQEVGSGNLDNTALLKRFEQAGVEYVVHQNVAGPVANILKDAKRLGLKMRHLGAHYTGGPDLIALAGDAAEGFLWATSFYMAHEDTPGIRLQKEIGRKYGRPENFIESVNYTNGMLAAAIAVEAIRRAQERFKRITNETVYQAIVGMNGPNAFKPGFAVSTKQGVEIDFTKSEHTGAEGLRILEAKGGRFVPVTEPFTSALFRKVHYGEGHHHHHH | not failed
MSLGRTDAIALAYPSRPRVLNNSTFLEMISWIGIELGKRGLDLLLIPDEPGEKYQSLIHLVETRRVDALIVAHTQPEDFRLQYLQKQNFPFLALGRSHLPKPYAWFDFDNHAGASLAVKRLLELGHQRIAFVSTDARISYVDQRLQGYVQTMSEAGLMPLAGYLQKADPTRPGGYLAASRLLALEVPPTAIITDCNMLGDGVASALDKAGLLGGEGISLIAYDGLPDDSLLDIAVTPIVQNTRTSVGKQIASMICDLLGGKDPKELQVLWQPEIGEGETDGVNRRGEGHHHHHH | not failed
MSLHDQRVHAERDPLDPQAHGLTITRIETIPMVAPLAREFRGSHYHMTHRATIVTRVHTDAGIIGEAYTGDEHETMFDIDRIIHEELAPTLIGQDAMAIERLWDSGYKVTFDILRDRRLGLVALAAVNTAIWDAVGKALKMPLWKLWGGYRNELPMIAIGGYYGEPLGSIADEMHNYQELGLAGVKFKVGGLSAAEDAARITAAREAAGDDFIICIDANQGYKPAVAVDLSRRIADLNIRWFEEPVEWHNDKRSMRDVRYQGSVPVCAGQTEFSASGCRDLMETGAIDVCNFDSSWSGGPTAWLRTAAIATSYDVQMGHHEEPQVSTHLLASQPHGTIAECFHPDRDPFWWNMITNRPKLNNGTLTLSDRPGLGWDLNWDYIDQYRVSKDEGHHHHHH | not failed
MSLHETFNRSAFSQFINGGQGRVLRLAAGLGFLAVGLVYRDRALGLAAMAWSVLPLTAGGFDVCYISAALGGPLSGEKIRRLRR | failed
MSLHPHLNANLEGGVLTLAINRPEAKNALYGELYLWIAKALDEADQNKDVRVVVLRGAEHDFTAGNDMKDFMGFVQNPNAGPAGQVPPFVLLKSAARLSKPLIIAVKGVAIGIGVTILLQADLVFADNTALFQIPFVSLGLSPEGGASQLLVKQAGYHKAAELLFTAKKFNAETALQAGLVNEIVEDAYATAQATAQHLTALPLASLKQTKALMKHDLDQIIECIDHEAEIFMQRVQSPEMLEAVQAFMQKRQPDFSQEGHHHHHH | not failed
MSLIPLRQNIASMKGYIPGYQPPDIASWIKLNTNENPYPPSPEVVKAILEELGPDGAALRIYPSASSQKLREVAGELYGFDPSWIIMANGSDEVLNNLIRAFAAEGEEIGYVHPSYSYYGTLAEVQGARVRTFGLTGDFRIAGFPERYEGKVFFLTTPNAPLGPSFPLEYIDELARRCAGMLVLDETYAEFAESNALELVRRHENVVVTRTLSKSYSLAGMRIGLAIARPEVIAALDKIRDHYNLDRLAQAACVAALRDQAYLSECCRRIRETREWFTTELRSIGYDVIPSQGNYLFATPPDRDGKRVYDGLYARKVLVRHFSDPLLAHGMRISIGTREEMEQTLAALKEIGEGHHHHHH | not failed
MSLISIFIPEILLVIMGFIVLAVGMFIQSGKASAAISFITLIAALLSVFFIPYDSSYGITVNKFSVYFSAVLIISALFISLPMYRYVKKRPEVFYASLIFSVIGMVIVAMTWNLVIAFVAFESVSIMTYIMSAYGGKQRNLEATIKYFFTGTIATTFIILGIGFYFFSVHTFSLSPVLNGSSISYYSGTKPEFLLALLFLLIGFGFKLAIFPMHQWAIDAYDGTENGVSAYLSTGTKIMAFVLVLKIFLVGFQSFPTPVYYMFTIIAIITMTYANVAALSQMNVKRLLAYSSVAQAGYMILVISVVSYVGLGSARSVSLAIAAGMFYALVYVFMKGGSFIAMNMVKEDNITFENISGLGKKSPYVAASFSILLLSLAGIPLTGGFLAKYFLFLSVIDSGLWWLAIIAIINSAISVFYYMKVMRYLFWEEPKGEFSTDMGNKAAVIVSAAIVVFLGVFYVLFPVLVGISSQIVG | failed
MSLIVVTGGAGFIGSHVVDKLSESNEIVVIDNLSSGNEEFVNEAARLVKADLAADDIKDYLKGAEEVWHIAANPDVRIGAENPDEIYRNNVLATYRLLEAMRKAGVSRIVFTSTSTVYGEAKVIPTPEDYPTHPISLYGASKLACEALIESYCHTFDMQAWIYRFANVIGRRSTHGVIYDFIMKLKRNPEELEILGNGEQNKSYIYISDCVDAMLFGLRGDERVNIFNIGSEDQIKVKRIAEIVCEELGLSPRFRFTGGDRGWKGDVPVMLLSIEKLKRLGWKPRYNSEEAVRMAVRDLVEDLDEEGHHHHHH | not failed
MSLIYQIAKEFDFCYGHRVWSQELNPDFSLDPCLSCRHLHGHQGKVIVHLESRELQRGMVTDFAHLNWFKRFIDEVLDHRFIIDIDDPLFPTLLPHFADKSALVWMEEGYARVDFERIKGESSPILELYESFVVVRFVPTSESIASWLLELLRSRIQPLGVKVSSVEFLETPKSRARVYNEGHHHHHH | not failed
MSLKDKKILIVEDSKFQAKTIANILNKYGYTVEIALTGEAAVEKVSGGWYPDLILMDIELGEGMDGVQTALAIQQISELPVVFLTAHTEPAVVEKIRSVTAYGYVMKSATEQVLITIVEMALRLYEANVHANEGHHHHHH | not failed
MSLKFENTGLENQTVELSRLDDIMERLGFVRAAQWDYERVTYDRKYVVKEGTYYLRVQGYAIEGNVDSRYALIKLLTPIMGKHYYPHGVEYGDDEHFPSSLVSQCQNVLAQVKSELEKIKEEGHHHHHH | not failed
MSLKFQKLSGLVLCFLIALPAWFLGQSFPLVGAPVFAIFLGMLLAIFYKNREHTEAGIAFTSKYILQFAVVLLGFGLNLSQVLTVGKTSLPIIVATISSSLLLAFLLQKWFKLDVNTATLVGVGSSICGGSAIAATAPVIQADGDEIAQSISVIFLFNILAALIFPTLGDMIGLSNHGFALFAGTAVNDTSSVTATAAAWDGLHHSNTLDGATIVKLTRTLAIIPITLGLSFYQVYKTKKVGKNQQHTVKLKKVFPMFILYFILASIITTILTALGVNPIFFTPLKTLSKFCIVMAMGAIGLNTNIVKLVKTGGQAIVLGASCWIVITLVSLGMQHLLGIW | failed
MSLKKALFLILDQYADWEGVYLASALNQREDWSVHTVSLDPIVSSIGGFKTSVDYIIGLEPANFNLLVMIGGDSWSNDNKKLLHFVKTAFQKNIPIAAICGAVDFLAKNGLLNNHSHTGNFVYLWKDYKQYKPISSFVEKQAVRDKNLVTANGTAPIEFTNLILEMIDFDTPENIEKMMYMNRYGFYHFCDKYGNPFVEGHHHHHH | not failed
MSLKKKIAVVTGATGGMGIEIVKDLSRDHIVYALGRNPEHLAALAEIEGVEPIESDIVKEVLEEGGVDKLKNLDHVDTLVHAAAVARDTTIEAGSVAEWHAHLDLNVIVPAELSRQLLPALRAASGCVIYINSGAGNGPHPGNTIYAASKHALRGLADAFRKEEANNGIRVSTVSPGPTNTPMLQGLMDSQGTNFRPEIYIEPKEIANAIRFVIDAGETTQITNVDVRPRIELADRKEGHHHHHH | not failed
